Experimental data: US20240400641A1 (EMORY UNIVERSITY, published 2024)
Where no end group is shown, it is not given here.

Target: T1, mouse PD-L1 (mouse, UniProt Q9EP73 19-290)
T1 construct: whole, on cells; Endogenous protein of mouse tumor cell lines; also called PD-L1 on mouse pancreatic cancer KC, Panc02 and KPC cells
Test: peptide-IONP conjugates on KC and Panc02 cells, Prussian blue staining

T1 sequence (Q9EP73 19-290): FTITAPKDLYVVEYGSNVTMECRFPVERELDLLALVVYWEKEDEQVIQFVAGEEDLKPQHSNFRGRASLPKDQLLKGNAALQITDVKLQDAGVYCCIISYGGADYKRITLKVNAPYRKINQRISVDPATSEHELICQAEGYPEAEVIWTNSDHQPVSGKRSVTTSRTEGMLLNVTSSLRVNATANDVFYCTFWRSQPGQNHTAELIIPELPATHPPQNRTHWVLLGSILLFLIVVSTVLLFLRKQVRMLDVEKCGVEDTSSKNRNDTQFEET

binding result	Binder
binds	NWNRLSPSNQTEKQAAPHHHHCGAISLHPKAKIEE (not fully specified; also: FITC label in competition assay, place not given here, also called PDIY; PD-1 like peptide) [PD-1 (Y) peptide]
binds	NWNRLSPSNQTEKQAACGAISLHPKAKIEESPGHHHH (also: FITC label in competition assay, place not given here, bound via His tag to NTA-Cu on IONPs or NTA-Ni beads, Tested as FITC-labelled free peptide, as IONP conjugate and on NTA-Ni beads; also called PD-1 like peptide; PD-1 Lin-IONP (when conjugated to iron oxide nanoparticles)) [PD-1 (Lin) peptide]
